Results reported in patent publication US20230035659A1, “Compositions and Methods for TTR Gene Editing and Treating ATTR Amyloidosis Comprising a Corticosteroid or Use Thereof” (Intellia Therapeutics, Inc., priority 2019, published 2023).
Strand notation (5' to 3'): a small letter for the sugar, then the base; units joined by * are phosphorothioate-linked, units joined directly phosphodiester-linked; [ ] holds rarer units or linkages, { } end groups; capitals alone tell only the bases. m = 2'-O-methyl; r = 2'-OH (RNA)

B1: G000499: TTR sgRNA modified sequence, Human, SEQ ID NO: 106; guide sequence of CR005303 (nucleic acid)
guide: mU*mG*mA*rArUrCrCrArArGrUrGrUrCrCrUrCrUrGrArGrUrUrUrUrArGrAmGmCmUmAmGmAmAmAmUmAmGmCrArArGrUrUrArArArArUrArArGrGrCrUrArGrUrCrCrGrUrUrArUrCrAmAmCmUmUmGmAmAmAmAmAmGmUmGmGmCmAmCmCmGmAmGmUmCmGmGmUmGmCmU*mU*mU*mU
B2: G000494: TTR sgRNA modified sequence, Human, SEQ ID NO: 101; guide sequence of CR003360 (nucleic acid)
guide: mG*mU*mG*rArGrUrCrUrGrGrArGrArGrCrUrGrCrArUrGrUrUrUrUrArGrAmGmCmUmAmGmAmAmAmUmAmGmCrArArGrUrUrArArArArUrArArGrGrCrUrArGrUrCrCrGrUrUrArUrCrAmAmCmUmUmGmAmAmAmAmAmGmUmGmGmCmAmCmCmGmAmGmUmCmGmGmUmGmCmU*mU*mU*mU
B3: G000486: TTR sgRNA modified sequence, Human, SEQ ID NO: 93; guide sequence of CR003339 (nucleic acid)
guide: mA*mC*mA*rCrArArArUrArCrCrArGrUrCrCrArGrCrArGrUrUrUrUrArGrAmGmCmUmAmGmAmAmAmUmAmGmCrArArGrUrUrArArArArUrArArGrGrCrUrArGrUrCrCrGrUrUrArUrCrAmAmCmUmUmGmAmAmAmAmAmGmUmGmGmCmAmCmCmGmAmGmUmCmGmGmUmGmCmU*mU*mU*mU
B4: G000480: TTR sgRNA modified sequence, Human, SEQ ID NO: 87; guide sequence of CR003353 (nucleic acid)
guide: mA*mA*mA*rGrGrCrUrGrCrUrGrArUrGrArCrArCrCrUrGrUrUrUrUrArGrAmGmCmUmAmGmAmAmAmUmAmGmCrArArGrUrUrArArArArUrArArGrGrCrUrArGrUrCrCrGrUrUrArUrCrAmAmCmUmUmGmAmAmAmAmAmGmUmGmGmCmAmCmCmGmAmGmUmCmGmGmUmGmCmU*mU*mU*mU

Assays:
human TTR sequence = test: Liver editing (NGS) after LNP dosing of mice humanized with respect to the TTR gene; format: in vivo, mouse; details: LNP Formulation Numbers 1-5, 2 mg/kg total RNA, Cas9 mRNA SEQ ID NO: 2, 1:1 to guide
Experimental: Unless otherwise noted, CD-1 female mice, ranging from 6-10 weeks of age were used in each study. Animals were weighed and grouped according to body weight for preparing dosing solutions based on group average weight. LNPs were dosed via the lateral tail vein in a volume of 0.2 mL per animal (approximately 10 mL per kilogram body weight). […] Body weight was measured at twenty-four hours post-administration, and animals were euthanized at various time points by exsanguination via cardiac puncture under isoflourane anesthesia. Blood was collected into serum separator tubes or into tubes containing buffered sodium citrate for plasma as described herein. […]
Additional PCR was performed per the manufacturer's protocols (Illumina) to add chemistry for sequencing. […] The reads were aligned to a reference genome (e.g., the human reference genome (hg38), the cynomologus reference genome (mf5), the rat reference genome (rn6), or the mouse reference genome (mm10)) after eliminating those having low quality scores. The resulting files containing the reads were mapped to the reference genome (BAM files), where reads that overlapped the target region of interest were selected and the number of wild type reads versus the number of reads which contain an insertion, substitution, or deletion was calculated. […]

[1] = test system: TTR on-target site and potential off-target sites; test: Targeted amplicon sequencing of on-target and potential off-target sites in primary human hepatocytes treated with LNPs; format: cell-based; details: PHH; for highest concentration (of gRNA) at which the potential off-target sites were no longer detected: LNP 11 point dose response 0.001-46.55 nM gRNA; for indel rate observed at the on-target site / number of potential off-target sites identified by the oligo insertion assay at which indels were detected (low levels) / indels at the in silico predicted off-target sites: LNP with 100 ng Cas9 mRNA (SEQ ID NO: 1); for indel rate observed at the on-target site: near-saturating dose of LNP; for number of potential off-target sites identified by the oligo insertion assay at which indels were detected (low levels): near-saturating dose; for number of potential off-target sites identified by the oligo insertion assay at which indels were detected (low levels) / indels at the in silico predicted off-target sites / Indel Frequency, On-Target site: targeted amplicon sequencing; for on-target indel rate at the highest gRNA concentration without detected off-target sites: LNP, 0.57 nM (G000480) and 15.51 nM (G000486) gRNA
Experimental: The HEK293_Cas9 cells used in Example 5 for detecting potential off-targets constitutively overexpress Cas9, leading to a higher number of potential off-target “hits” as compared to a transient delivery paradigm in various cell types. […] Accordingly, potential off-target sites identified by an oligo insertion method as used in Example 5 may be validated using targeted sequencing of the identified potential off-target sites.
In one approach, primary hepatocytes are treated with LNPs comprising Cas9 mRNA and a sgRNA of interest (e.g., a sgRNA having potential off-target sites for evaluation). The primary hepatocytes are then lysed and primers flanking the potential off-target site(s) are used to generate an amplicon for NGS analysis. Identification of indels at a certain level may validate potential off-target site, whereas the lack of indels found at the potential off-target site may indicate a false positive in the HEK293_Cas9 cell assay.
Following the identification of potential off-target sites in […] via the oligo insertion assay, certain potential sites were further evaluated by targeted amplicon sequencing, e.g., as described in Example 6. In addition to the potential off-target sites identified by the oligo insertion strategy, additional potential off-target sites identified by in silico prediction were included in the analysis.
To this end, PHH were treated with LNPs comprising 100 ng of Cas9 mRNA (SEQ ID NO:1) and the gRNA of interest at 14.68 nM (in a 1:1 ratio by weight), as described in Example 4. The LNPs were prepared using the cross-flow procedure described above and purified and concentrated using PD-10 columns and Amicon centrifugal filter units, respectively. The LNPs were formulated with an N:P ratio of 6.0 and contained Lipid A, Cholesterol, DSPC, and PEG2k-DMG in a 50:38:9:2 molar ratio, respectively. Following LNP treatment, isolated genomic DNA was analyzed by NGS (e.g., as described in Examples 1 and 6) to determine whether indels could be detected at the potential off-target site, which would be indicative of a Cas9-mediated cleavage event. Tables 33 and 34 show the potential off-target sites that were evaluated for the gRNAs G000480 and G000486, respectively.
As shown in FIGS. 21A-B and 22A-B and Table 35 below, indels were detected at low levels for only two of the potential off-target sites identified by the oligo insertion assay for G000480, and only one for G000486. […] Further, indels were only detected at these sites using a near-saturating dose of LNP, as the indel rates observed at the on-target sites for G000480 and G000486 were ˜97% and ˜91%, respectively (See Table 35).
A dose response assay was then performed in order to determine the highest dose of LNP in which no off-targets were detected. PHH were treated with LNPs comprising either G000480 or G000486 as described in Example 4. The doses ranged across 11 points with respect to gRNA concentration (0.001 nM, 0.002 nM, 0.007 nM, 0.02 nM, 0.06 nM, 0.19 nM, 0.57 nM, 1.72 nM, 5.17 nM, 15.51 nM, and 46.55 nM).

[2] = LNP with 100 ng Cas9 mRNA and 14.68 nM gRNA

Row | Molecule | liver editing of the human TTR sequence (mean values) (human TTR sequence) [%] | highest concentration (of gRNA) at which the potential off-target sites were no longer detected [1] [nM] | indel rate observed at the on-target site [1] [%] | number of potential off-target sites identified by the oligo insertion assay at which indels were detected (low levels) [1] | indels at the in silico predicted off-target sites [1] | Indel Frequency, Off-Target site INS-OT.4 (of G000486) ([1]; LNP with 100 ng Cas9 mRNA and 14.68 nM gRNA, G000486 site INS-OT.4 (chr5: 91397023-91397043)) [%] | Indel Frequency, On-Target site [1, 2] [%] | on-target indel rate at the highest gRNA concentration without detected off-target sites [1] [%] | Indel Frequency, Off-Target site INS-OT.2 ([1]; LNP with 100 ng Cas9 mRNA and 14.68 nM gRNA, G000480 site INS-OT.2 (chr2: 192658562-192658582)) [%] | Indel Frequency, Off-Target site INS-OT.4 (of G000480) ([1]; LNP with 100 ng Cas9 mRNA and 14.68 nM gRNA, G000480 site INS-OT.4 (chr20: 9216118-9216138)) [%]
1 | B1 | ~60 | – | – | – | – | – | – | – | – | –
2 | B2 | ~60 | – | – | – | – | – | – | – | – | –
3 | B3 | – | 15.51 | ~91 | one | No indels were detected | 0.47 | 91.33 | 89.50 | – | –
4 | B4 | – | 0.57 | ~97 | two | No indels were detected | – | 97.33 | 84.60 | 1.43 | 0.97
